Measurements from article PMC6219552, “β-Glucuronidases of opportunistic bacteria are the major contributors to xenobiotic-induced toxicity in the gut” (Scientific Reports, 2018).

B1: Bacteroides fragilis β-D-glucuronidase (enzyme)
chain: RQDILLNNNWNFRFSHQVQGDTRRVDLPHTWNAQDALAGKIDYKRGIGNYEKALYIRPEWKGKRLFLRFDGVNSIADVFINRKHIGEHRGGYGAFIFEITDLVKYGEKNSVLVRANNGEQLDIMPLVGDFNFYGGIYRDVHLLITDETCISPLDYASPGVYLVQEVVSPQEAKVCAKVNLSNRAADGTAELQVLVTDGTKVICKESRNVSLKQGADILEQLPLLIQKPRLWNGCEDPFMYQVSISLHKDGKQIDSVTQPLGLRYYHTDPDKGFFLNGKHLPLHGVCRHQDRAEVGNALRPQHHEEDVALMREMGVNAIRLAHYPQATYMYDLMDKHGIVTWAEIPFVGPGGYADKGFVDQASFRENGKQQLIELIRQHYNHPSICFWGLFNELKEVGDNPVEYVKELNALAKQEDPTRPTTSASNQDGNLNFITENIAWNRYDGWYGSTPKTLATFLDRTHKKHPELRIGISEYGAGASIYHQQDSLKQPSASGWWHPENWQTYYHMENWKIIAERPFVWGTFVWNMFDFGAAHRTEGDRPGINDKGLVTFDRKVRKDAFYFYKANWNKQEPMIYLAEKRCRLRYQPEQTFMAFTTAPEAELFVNGVSCGKQKADTYSTVVWKNVKLTSGENIIRVTTPGKKPLTDEVTVEYKEDR
notes: β-D-glucuronidase (GUS) of Bacteroides fragilis, codon-optimized gene bought from GenScript, in pET15b; apo structure PDB 3CMG named as search model; Crystallised and soaked with UIFG; Its PDB code is one of 5Z18, 5Z19, 5Z1A, 5Z1B; also called BfGUS
B2: Ruminococcus gnavus β-D-glucuronidase (enzyme)
chain: MLEYSELYPIQNEYRMMQSLDGMWKFQFDPEEIGKKSGWENGLPAPVSMPVPSSFADFFTDHKERDYCGDFWYETEFYLPAEWRNKKIWLRFGSITHRGTVYCNGMEITSHEGGFLPVLADISTVAKPGQVNQVVVKINNELNETSLPCGATKILNNGRKLAKPYFDFFNYSGLQRSVWVIALPEESVKDYSVDYELCGTDALVKYEVVTTGEHPVIVRLLDAEGELVAETEGKEGILQVANARLWEVRNAYLYQIVILITDGNGVLDEYREKIGIRTVRIEGTKILLNDRPVYLKGFGKHEDFPILGRGFHWGIVKRDFECLKWTNANCFRTSHYPYAEEWYQFADEEGFLIIDEVPAVGMMRSTRNFVAAGSGNYTYFFEALTVPELLKSHIADTEEMITRDKNHPSVIAWSLFNEPETITDYAYEYFKEVFAAAETYDFQSRPMTGAFEKNSKPELCKCYPLCDFICLNRYYGWYISGGPEIEEAEELFRDEMDRWKAKELNVPFVFTEFGTDTMAGLHKLPSIMWSEEYQKEYLEMNFRVFDSYEFVQGELAWNFADFQTTEGIMRVDGNHKGVFTRDRQPKAAAVVFKDRWEKKNELF

What was measured:
[1] = target: Bifidobacterium dentium β-D-glucuronidase, catalytically inactive mutant E479A (Bifidobacterium dentium); assay: crystal structure; crystals of the purified GUS alone, soaked with UIFG (RgGUS, BfGUS) or with compound 10 (BifdGUS E479A); oligomer as seen in the crystal structures
[2] = target: the molecule itself; assay: as above

Molecule	stoichiometry N [1]	stoichiometry N [2]
Bifidobacterium dentium β-D-glucuronidase, catalytically inactive mutant E479A (enzyme)	4	–
B1	–	4
B2	–	4
